Entries after “also recorded” stand apart in the source; their conditions may differ.
Key:
[1] = tested on: prk6 pollen tubes transformed with PRK6 of wild-type; assay: Gelatin-beads assay, prk6 pollen tubes transformed with wild-type PRK6; type: cell-based, Arabidopsis; settings: beads with 250 nM wild-type AtLURE1.2; 10–23 pollen tubes per assay, three assays
Method: Attraction activities of mutant AtLURE1.2 peptides were examined for semi-in-vivo pollen tubes growing through cut, pollinated pistils by gelatin-beads assay and wavy assay, [20]. For the gelatin-beads assay, pollen tubes were grown on solid pollen germination medium poured into a mold made with 1-mm thick silicone rubber and cover glasses. After hand-pollination, the topside cover glass was removed and the medium was covered with hydrated silicone oil (KF-96–100CS; Shin-Etsu). Attraction of pollen tubes toward the peptide was evaluated using AtLURE1 peptide containing gelatine beads under an inverted microscope (IX71, Olympus) equipped with a micro-manipulator (Narishige). For the AtLURE1-responsive wavy assay, the purified AtLURE1.2 peptide was added to solid pollen germination medium, which was melted at 70 °C and then cooled to a certain degree. The mixture was mixed by vortexing and poured into the mold. Pollen tubes of each genotype were grown through cut styles, as mentioned above. Each peptide (25 μM in 10 mM Bis-Tris (pH 6.0) and 100 mM NaCl) was diluted to 250 nM by cultivation medium in both assays. To examine reactivity of PRK6 mutants to AtLURE1.2, constructs for PRK6 mutants, D234A, N239A, and ΔN239I240, were generated by site-directed mutagenesis from a wild-type PRK6 vector, pPZP221-pPRK6::PRK6-mRuby2 (ref. [20]). […]

MIK2^LRR = assay: ITC, AtLURE1.2 titrated into MIK2^LRR; type: binding, Arabidopsis; settings: 25 °C, 200 mM HEPES pH 7.0, 100 mM NaCl, as for MIK1LRR (0.5 mM AtLURE1.2 into 0.05 mM)
Description: (§1) The genes of AtPRK3 ^LRR (residues 1–241), AtPRK4 ^LRR (residues 1–277), AtPRK5 ^LRR (residues 1–279), AtPRK6 ^LRR (residues 1–262), MIK1 ^LRR (residues 1–633), MIK2 ^LRR (residues 1–707) were amplified from Arabidopsis cDNA library by PCR and cloned into pFastBac-1 vector with a C-terminal 6 × His-tag. Their identities were confirmed by sequencing. The mature form of AtLURE1.1 (residues 20–94), AtLURE1.2 (residues 20–90), AtLURE1.3 (residues 21–91), and AtLURE1.4 (residues 20–90) were cloned into pFastBac-1 vector, with a modified N-terminal hemolin signal peptide and 6 × His-SUMO tag. Point mutation constructs were generated by QuickChange Site-Directed Mutagenesis Kit (Strategene). All the proteins were expressed using the Bac-to-Bac baculovirus expression system (Invitrogen) in High Five cells at 22 °C. One liter of High Five cells (2.0 × 10^6 cells mL^−1) cultured in the medium from Expression Systems was infected with 25 ml recombinant baculovirus and the media was collected after 72 h of infection. Secreted LRR proteins were purified using Ni-NTA (Novagen) and size-exclusion chromatography (Hiload 200, GE Healthcare) in buffer containing 10 mM Bis-Tris pH 6.0 and 100 mM NaCl. […]
Supplementary Figure 6: Binding affinity between MIK1LRR, MIK2LRR and AtLURE1.2 was not detected in ITC assay. […]

[2] = tested on: prk6 knockout pollen tubes; settings: cited from earlier work
Description: (§2) The DEFL peptide SCR9 that is involved in self-recognition in self-incompatibility induces homodimerization of its receptor SRK9 (ref. [34]).

[3] = tested on: prk3 deletion pollen tubes; settings: cited from earlier work
Description: as §2

[4] = tested on: AtPRK6^LRR with mutations of other AtLURE1.2-interacting residues; assay: In vitro pull-down with other AtPRK6^LRR mutants; type: binding, Arabidopsis thaliana; settings: mutations of other AtLURE1.2-interacting residues of AtPRK6^LRR
Description: as §1
The purified His-tagged ectodomains of AtPRK proteins and MIK1, 2 were used to pull-down the AtLURE1.2 peptide. […] All the eluted samples were analyzed by SDS-PAGE and visualized by Coomassie blue staining. […]

B1: AtLURE1.2: mature form of AtLURE1.2 (residues 20–90), defensin-like cysteine-rich peptide expressed in insect cells (protein)
chain: TLINGSSDEERTYSFSPTTSPFDPRSLNQELKIGRIGYCFDCARACMRRGKYIRTCSFERKLCRCSISDIK
modifications: left off: His6, N-terminal, cleaved | SUMO, N-terminal, cleaved
notes: mature form of AtLURE1.2 (residues 20–90), defensin-like cysteine-rich peptide expressed in insect cells
pollen tube attraction [1]: attraction was normally observed | binding in ITC (MIK2^LRR): not detected; also recorded: no obvious heat was produced; also recorded: none of the purified AtPRK3^LRR, MIK1^LRR or MIK2^LRR proteins showed detectable interaction | pollen tube reorientation toward AtLURE1.2 [2]: completely abolished | responsiveness of pollen tubes to AtLURE1.2 [3]: little effect | interaction in pull-down assay [4]: much less striking effects

From PMC5673899, “Structural basis for receptor recognition of pollen tube attraction peptides” (Nature Communications, 2017)
